From paper PMC3465527

Legend:
Mss116p MBP-D1 = biological target: T1, Mss116p MBP-D1 (Saccharomyces cerevisiae? (paper: yeast), UniProt P15424 88-330); test: EMSA
T1 sequence: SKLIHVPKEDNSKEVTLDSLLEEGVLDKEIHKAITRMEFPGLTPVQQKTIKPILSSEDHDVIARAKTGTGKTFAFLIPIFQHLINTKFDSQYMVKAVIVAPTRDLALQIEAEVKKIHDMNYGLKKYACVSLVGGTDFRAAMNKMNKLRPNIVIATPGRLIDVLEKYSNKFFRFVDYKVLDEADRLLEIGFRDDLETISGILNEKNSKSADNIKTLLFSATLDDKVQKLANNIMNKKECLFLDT

Mss116p D2 (with CTE) = biological target: T2, Mss116p D2 (with CTE) (Saccharomyces cerevisiae? (paper: yeast), UniProt P15424 342-597); test: X-ray crystallography
T2 sequence: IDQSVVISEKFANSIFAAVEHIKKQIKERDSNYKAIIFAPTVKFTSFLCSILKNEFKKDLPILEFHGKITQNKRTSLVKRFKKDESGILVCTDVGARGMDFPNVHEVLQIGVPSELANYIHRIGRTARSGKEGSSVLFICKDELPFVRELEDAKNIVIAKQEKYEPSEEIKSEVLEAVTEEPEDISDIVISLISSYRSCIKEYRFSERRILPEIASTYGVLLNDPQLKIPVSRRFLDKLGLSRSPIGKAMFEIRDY

B1: FAM-dsRNA 14-bp (dsRNA)
RNA 1: GGGCGGGCCCGCCC
RNA 2: GGGCGGGCCCGCCC
B1: no binding (Mss116p MBP-D1).

B2: chimeric RNA-DNA duplex 14-bp (mixed)
? 1: GGGCGGGCCCGCCC
? 2: GGGCGGGCCCGCCC
modifications: each strand rGrGrGrCrGrGrGdCdCdCdGdCdCdC: nt 1-7 RNA, nt 8-14 DNA
B2: binds (Mss116p D2 (with CTE)).
